Data: doi:10.64898/2025.12.10.693372 (bioRxiv, 2025)

B1: C092 Fab (Fab, V domains shown)
VH: QVQLVQSGAEVKKPGSSVKVSCKASGGSFTNHFISWVRQAPGQGLEWMGRIIPILGTANYAQNFQGRVMMTADKSTSTAYMELSSLRSEDTAVYYCARDSGYSGYGSTYYMDVWGKGTTVTVSS
VL: QSVLTQPPSVSGAPGQRVTISCTGSNSNIGAGYDVHWYQQLPGAAPKLLIYGNNNRPSGVPDRFSGSKSDTSASLAITGLQVEDEADYYCQSYDSSLSDSVFGSGTKVTVL
B2: ZL525 Fab (Fab, V domains shown)
V domain 1: QVQLVQSGAEVKKPGSSMKVSCQASGGTFSSHPISWIRQAPGQGLEWMGRIIPIAGMTDYGQKFQGRITITADTSTSTSYVELRGLRSQDTAFYYCAKDVGYSDYGSAYYFHTWGQGTLITVSS
V domain 2: QSVLTQPPSVSGAPGQRVTISCTGSNSNIGAGYDVHWYQQLPGTAPKLLIYRNNKRPSGVPDRFSGSKSDTSASLAITGLQAEDEAHYYCQSFDSSLGGSLFGGGTKLAVL
B3: R102-9 Fab (Fab, V domains shown)
VH: EVQLVESGGGLVQPGGSLRLSCAASGIIVSRNYMSWVRQAPGKRPEWVSLIYPGGSTFYADSVKGRFTISRDNSKNMLFLQMNSLRAEDTAVYYCARDLTIRGEASWGQGTLVTVSS
VL: EIVMTQSPATLSVSPGERATLSCRASQSFNSNLAWYQQKPGQAPRLLIYGASTRATGIPARFSGSGSGTEFTLTISSLQSEDFAVYYCQQYGDWPLWTFGQGTKVEIK
B4: ZL58 Fab (Fab, V domains shown)
VH: QLELVQSGGGLVQPGGSLRLSCAASEIAVSRNYMNWVRQGPGKGLEWVSIIYPGGSTFYADSVKGRFTISTDDSKNTLYLQMDSLSTDDTALYYCARQGPNGRNDFWGQGTLVTVSS
VL: DIQMTQSPSSLSASAGERVTITCQASQDINMYLNWYQQKPGKAPKLLIYDASNLETGVPSRFSGSGSVTEFTFTISSLQPEDIGTYYCHQYDSFPPTFGGGTKVDLK

What was measured:
[1] = target: T1, SARS-CoV-2 Omicron JD.1.1 spike (S-6P) (SARS-CoV-2 Omicron JD.1.1, S-GSAS/6P (furin cleavage site, residues 682–685) | F817P | A892P | A899P | …); experiment: cryo-EM structure; conditions: both partners purified
T1 construct: also called JD.1.1 S-6P; Omicron JD.1.1 S-trimer (S-6P)

[2] = target: T2, SARS-CoV-2 Omicron LP.8.1 spike (S-6P) (SARS-CoV-2 Omicron LP.8.1, S-GSAS/6P (furin cleavage site, residues 682–685) | F817P | A892P | A899P | …); experiment: cryo-EM structure; conditions: both partners purified
T2 construct: also called LP.8.1 S-6P; Omicron LP.8.1.1 spike (S-6P)

| Binder | stoichiometry N [1] | stoichiometry N [2] |
| --- | --- | --- |
| B1 | 3 Fabs per S-trimer |  |
| B2 |  | 3 Fabs per S-trimer |
| B3 | 3 Fabs per S-trimer |  |
| B4 |  | 3 Fabs per S-trimer |
